{"source": "paper PMC3766443", "about": "(Nature structural & molecular biology, 2013)", "target": "Arp2 subunit of Bos taurus Arp2/3 complex (Bos taurus, UniProt A7MB62 1-394)", "assay": "crystal structure"}
{"binder": "Mus musculus GMFγ (glial maturation factor gamma), GST tag removed (natural protein) MSDSLVVCEVDPELKETLRKFRFRKETNNAAIIMKVDKDRQMVVLEDELQNISPEELKLELPERQPRFVVYSYKYVHDDGRVSYPLCFIFSSPVGCKPEQQMMYAGSKNRLVQTAELTKVFEIRTTDDLTETWLKEKLAFFR", "values": [{"measurement": "binding result", "result": "binds"}]}
